Target: T1, Human CEACAM6-Domain 1-His-I30F (I63F according to SEQ-ID NO: 179) (human)
T1 construct: the entry already carries the substitution; also called TPP-8698
T1 chain: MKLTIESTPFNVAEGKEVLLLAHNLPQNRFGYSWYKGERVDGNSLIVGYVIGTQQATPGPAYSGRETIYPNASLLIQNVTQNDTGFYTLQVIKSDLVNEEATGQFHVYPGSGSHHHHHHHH
Assay: ELISA, domain 1 protein coated
Description: The proteins were expressed in E. coli, refolded and purified as described in Example 1. Comparative binding activity to domain 1 wild-type protein and the two single mutations was determined by ELISA method. 1.5 ug/ml protein solutions in PBS were coated overnight to 384 Nunc MaxiSorp plates (Sigma, P6491). Plates were washed with PBS/T and blocked with Smart block (CANDOR Bioscience GmbH, 113125). […] After washing with PBS/T, bound antibodies were detected with Anti Human IgG Fc POD (Sigma, A0170) and 10 μM Amplex Red solution (Thermo, A12222). Positive binding signals were detected via Fluorescence (Ex. 535 nm/Em. 590 nm).

binding result: no binding
B1: TPP-3310 (antibody, human IgG2, kappa)
heavy: QVTLRESGPALVKPTQTLTLTCTFSGFSLSTYGIGVGWIRQPPGKALEWLAHIWWNDNKYYSTSLKTRLTISKDTSKNQVVLTMTNMDPVDTATYYCARISLPYFDYWGQGTTLTVSSASTKGPSVFPLAPCSRSTSESTAALGCLVKDYFPEPVTVSWNSGALTSGVHTFPAVLQSSGLYSLSSVVTVPSSNFGTQTYTCNVDHKPSNTKVDKTVERKCCVECPPCPAPPVAGPSVFLFPPKPKDTLMISRTPEVTCVVVDVSHEDPEVQFNWYVDGVEVHNAKTKPREEQFNSTFRVVSVLTVVHQDWLNGKEYKCKVSNKGLPAPIEKTISKTKGQPREPQVYTLPPSREEMTKNQVSLTCLVKGFYPSDIAVEWESNGQPENNYKTTPPMLDSDGSFFLYSKLTVDKSRWQQGNVFSCSVMHEALHNHYTQKSLSLSPG
light: DIQLTQSPSFLSASVGDRVTITCKASQNVGTAVAWYQQKPGKAPKLLIYSASNRYTGVPSRFSGSGSGTEFTLTISSLQPEDFATYYCQQYSSYPLTFGGGTKVEIKRTVAAPSVFIFPPSDEQLKSGTASVVCLLNNFYPREAKVQWKVDNALQSGNSQESVTEQDSKDSTYSLSSTLTLSKADYEKHKVYACEVTHQGLSSPVTKSFNRGEC
notes: humanized from TPP-2971, human IgG2; also called TPP-2971HU1-hIgG2Kappa

Source: US20200181261A1 (Bayer, published 2020)
